Data: PMC4520625

Legend:
[1] = target: full-length human galectin-3 (human) (UniProt P17931); test: ITC
[2] = target: galectin-3 carbohydrate recognition domain (CRD) obtained by proteolytic truncation (human); test: ITC

Sequence of full-length human galectin-3 (human) (P17931 whole entry, the tested form may be a part): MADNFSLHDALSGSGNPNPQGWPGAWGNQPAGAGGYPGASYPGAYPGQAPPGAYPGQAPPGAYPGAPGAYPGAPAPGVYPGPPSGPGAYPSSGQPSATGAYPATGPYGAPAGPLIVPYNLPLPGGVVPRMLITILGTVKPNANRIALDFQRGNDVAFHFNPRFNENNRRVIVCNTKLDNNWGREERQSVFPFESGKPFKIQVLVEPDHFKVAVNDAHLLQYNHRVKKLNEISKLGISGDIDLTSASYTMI

MUC1-Ser5 glycopeptide carrying the TF antigen
dH [1]: -1.33 kcal/mol
dH [2]: -4.11 kcal/mol
